Results reported in article PMC9712175.

Molecular target: extracellular domain (ECD) of human insulin-like growth factor-1 receptor (hIGF-1R) (human) (UniProt P08069)
Test: other fluorescence titration

Chain of UniProt P08069 (P08069 741-935): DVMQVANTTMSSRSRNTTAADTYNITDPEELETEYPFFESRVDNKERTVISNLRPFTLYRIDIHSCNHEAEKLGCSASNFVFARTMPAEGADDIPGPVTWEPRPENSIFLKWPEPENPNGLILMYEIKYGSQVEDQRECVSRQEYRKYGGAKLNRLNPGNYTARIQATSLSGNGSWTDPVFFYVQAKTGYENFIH

Kd: 0.09 µM
Substance: full-length human insulin-like growth factor 1 (hIGF1) (from UniProt P05019 22-118) (ligand)
